In patent US20210284734A1 (SYMPHOGEN A S, published 2021):

T1: human PD-1 ECD-Fc chimeric construct 3 (human, UniProt Q15116 21-170)
T1 construct: not shown: human IgG1 Fc, residues P101-K330
T1 chain: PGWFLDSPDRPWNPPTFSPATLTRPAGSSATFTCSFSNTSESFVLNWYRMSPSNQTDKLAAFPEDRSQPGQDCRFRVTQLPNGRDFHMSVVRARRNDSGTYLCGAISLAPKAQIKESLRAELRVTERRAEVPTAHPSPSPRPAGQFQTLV

T2: human PD-1 ECD-Fc chimeric construct 4 (human, UniProt Q15116 21-170)
T2 construct: not shown: human IgG1 Fc, residues P101-K330
T2 chain: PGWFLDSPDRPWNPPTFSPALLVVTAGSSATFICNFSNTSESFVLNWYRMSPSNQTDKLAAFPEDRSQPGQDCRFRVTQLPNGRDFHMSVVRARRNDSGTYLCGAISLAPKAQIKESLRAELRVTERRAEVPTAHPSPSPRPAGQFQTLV

T3: human PD-1 ECD-Fc chimeric construct 6 (human, UniProt Q15116 21-170)
T3 construct: not shown: human IgG1 Fc, residues P101-K330
T3 chain: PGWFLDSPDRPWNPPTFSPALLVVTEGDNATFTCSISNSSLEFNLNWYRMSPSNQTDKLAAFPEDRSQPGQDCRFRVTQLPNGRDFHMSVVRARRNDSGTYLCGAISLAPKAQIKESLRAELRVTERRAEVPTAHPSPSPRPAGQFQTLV

T4: human PD-1 ECD-Fc chimeric construct 8 (human, UniProt Q15116 21-170)
T4 construct: not shown: human IgG1 Fc, residues P101-K330
T4 chain: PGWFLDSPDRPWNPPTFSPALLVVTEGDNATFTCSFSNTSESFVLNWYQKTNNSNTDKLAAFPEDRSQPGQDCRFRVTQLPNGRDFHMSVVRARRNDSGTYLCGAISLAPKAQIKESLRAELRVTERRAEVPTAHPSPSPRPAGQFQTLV

T5: human PD-1 ECD-Fc chimeric construct 10 (human, UniProt Q15116 21-170)
T5 construct: printed run together as P83IE84R; not shown: human IgG1 Fc, residues P101-K330
T5 chain: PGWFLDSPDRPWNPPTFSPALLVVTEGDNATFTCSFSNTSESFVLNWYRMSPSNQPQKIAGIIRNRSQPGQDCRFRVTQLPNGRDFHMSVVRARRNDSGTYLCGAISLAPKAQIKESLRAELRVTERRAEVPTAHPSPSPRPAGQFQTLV

T6: human PD-1 ECD-Fc chimeric construct 11 (human, UniProt Q15116 21-170)
T6 construct: printed run together as P83IE84R; not shown: human IgG1 Fc, residues P101-K330
T6 chain: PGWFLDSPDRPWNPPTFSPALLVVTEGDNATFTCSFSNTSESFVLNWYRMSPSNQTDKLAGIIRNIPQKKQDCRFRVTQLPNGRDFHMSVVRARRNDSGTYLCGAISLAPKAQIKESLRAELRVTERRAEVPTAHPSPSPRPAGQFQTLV

T7: human PD-1 ECD-Fc chimeric construct 16 (human, UniProt Q15116 21-170)
T7 construct: not shown: human IgG1 Fc, residues P101-K330
T7 chain: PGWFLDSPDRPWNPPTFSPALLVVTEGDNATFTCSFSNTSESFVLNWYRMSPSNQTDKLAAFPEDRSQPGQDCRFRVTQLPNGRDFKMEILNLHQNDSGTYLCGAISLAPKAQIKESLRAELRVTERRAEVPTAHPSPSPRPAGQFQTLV

T8: human PD-1 ECD-Fc chimeric construct 17 (human, UniProt Q15116 21-170)
T8 construct: not shown: human IgG1 Fc, residues P101-K330
T8 chain: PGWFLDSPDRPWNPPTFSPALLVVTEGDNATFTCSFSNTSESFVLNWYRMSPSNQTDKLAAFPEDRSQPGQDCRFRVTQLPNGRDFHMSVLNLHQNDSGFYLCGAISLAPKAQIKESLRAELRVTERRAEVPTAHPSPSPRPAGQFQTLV

T9: human PD-1 ECD-Fc chimeric construct 20 (human, UniProt Q15116 21-170)
T9 construct: printed run together as I134VK135V; not shown: human IgG1 Fc, residues P101-K330
T9 chain: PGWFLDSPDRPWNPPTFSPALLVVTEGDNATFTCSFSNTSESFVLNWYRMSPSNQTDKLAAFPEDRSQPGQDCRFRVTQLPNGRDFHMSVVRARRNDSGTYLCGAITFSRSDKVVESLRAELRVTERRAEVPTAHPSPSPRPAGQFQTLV

T10: human PD-1 ECD-Fc chimeric construct 21 (human, UniProt Q15116 21-170)
T10 construct: printed run together as I134VK135V; not shown: human IgG1 Fc, residues P101-K330
T10 chain: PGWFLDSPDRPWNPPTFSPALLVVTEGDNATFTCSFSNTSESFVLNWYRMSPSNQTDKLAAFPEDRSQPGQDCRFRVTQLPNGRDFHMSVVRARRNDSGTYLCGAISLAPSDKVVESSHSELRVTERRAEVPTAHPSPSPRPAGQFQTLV

T11: human PD-1 ECD-Fc chimeric construct 22 (human, UniProt Q15116 21-170)
T11 construct: not shown: human IgG1 Fc, residues P101-K330
T11 chain: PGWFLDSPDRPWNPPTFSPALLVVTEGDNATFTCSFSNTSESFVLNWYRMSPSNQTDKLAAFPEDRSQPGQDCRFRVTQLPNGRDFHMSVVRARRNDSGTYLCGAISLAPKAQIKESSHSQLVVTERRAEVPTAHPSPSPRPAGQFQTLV


Tests used:
[1] = target: T12, human PD-1 ECD-Fc chimeric construct 1 (human, UniProt Q15116 21-170); assay: SPR, Fab on captured PD-1-Fc
T12 construct: not shown: human IgG1 Fc, residues P101-K330

[2] = target: T1, human PD-1 ECD-Fc chimeric construct 3; assay: SPR, Fab on captured PD-1-Fc
Experimental: (§1) The human PD-1 Fc fusion constructs were harvested after 9 days and supernatants were tested for binding affinity to anti-PD-1 Fabs by Surface Plasmon Resonance (SPR). Culture supernatants containing PD-1 fusion proteins were immobilized onto an G-a-hu-IgG Fc SensEye® (Ssens BV, The Netherlands) for 15 minutes using a Continuous Flow Microspotter (CFM, Wasatch Microfluidics, Salt Lake City, US). After spotting, the SensEye® was positioned in an IBIS MX96 biosensor and captured proteins were fixed to the surface using FixIT kit (Ssens BV, The Netherlands). […] Fab association was performed for 15 minutes and antigen dissociation was performed for 30 minutes. The recorded binding responses were fitted to a simple Langmuir 1:1 binding model with Scrubber 2 software for calculation of the on-rate (kₒₙ or ka), off-rate (koff or kd) and affinity (KD) constants.
(§2) The change in binding affinity of Fab antibodies binding to the mutated PD-1 constructs compared to wild-type were expressed as the ratio of KD mutant/KD wild-type (normalized binding affinity).

[3] = target: T2, human PD-1 ECD-Fc chimeric construct 4; assay: SPR, Fab on captured PD-1-Fc
Experimental: as §1, §2

[4] = target: T3, human PD-1 ECD-Fc chimeric construct 6; assay: SPR, Fab on captured PD-1-Fc
Experimental: as §1, §2

[5] = target: T4, human PD-1 ECD-Fc chimeric construct 8; assay: SPR, Fab on captured PD-1-Fc
Experimental: as §1, §2

[6] = target: T5, human PD-1 ECD-Fc chimeric construct 10; assay: SPR, Fab on captured PD-1-Fc
Experimental: as §1, §2

[7] = target: T6, human PD-1 ECD-Fc chimeric construct 11; assay: SPR, Fab on captured PD-1-Fc
Experimental: as §1, §2

[8] = target: T7, human PD-1 ECD-Fc chimeric construct 16; assay: SPR, Fab on captured PD-1-Fc
Experimental: as §1, §2

[9] = target: T8, human PD-1 ECD-Fc chimeric construct 17; assay: SPR, Fab on captured PD-1-Fc
Experimental: as §1, §2

[10] = target: T9, human PD-1 ECD-Fc chimeric construct 20; assay: SPR, Fab on captured PD-1-Fc
Experimental: as §1, §2

[11] = target: T10, human PD-1 ECD-Fc chimeric construct 21; assay: SPR, Fab on captured PD-1-Fc
Experimental: as §1, §2

[12] = target: T11, human PD-1 ECD-Fc chimeric construct 22; assay: SPR, Fab on captured PD-1-Fc
Experimental: as §1, §2

[13] = target: T13, human PD-1 ECD Fc fusion, wild-type (human, UniProt Q15116 21-170); assay: SPR, Fab on captured wild-type PD-1-Fc; row head prints (nM), values evidently in M
T13 construct: also called Hu PD-1 ECD wild-type; hu PD-1 ECD; not shown: human IgG1 Fc, residues P101-K330
T13 sequence (Q15116 21-170): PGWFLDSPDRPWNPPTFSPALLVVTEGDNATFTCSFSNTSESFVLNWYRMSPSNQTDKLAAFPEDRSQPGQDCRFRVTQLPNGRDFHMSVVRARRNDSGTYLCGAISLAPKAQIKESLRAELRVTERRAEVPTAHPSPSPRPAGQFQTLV

Binder	KD mutant/KD wild-type [1]	KD mutant/KD wild-type [2]	KD mutant/KD wild-type [3]	KD mutant/KD wild-type [4]	KD mutant/KD wild-type [5]	KD mutant/KD wild-type [6]	KD mutant/KD wild-type [7]	KD mutant/KD wild-type [8]	KD mutant/KD wild-type [9]	KD mutant/KD wild-type [10]	KD mutant/KD wild-type [11]	KD mutant/KD wild-type [12]	binding result [5]	binding result [10]	binding result [11]	Kd [13]
13112.15380 Fab (Fab, V domains shown) VH: EVQLLESGGGLVQPGGSLRLSCAASGFTFSSYNMFWVRQAPGKGLEFVAEISGSNTGSRTWYAPAVKGRATISRDNSKNTLYLQMNSLRAEDTAVYYCAKSIYGGYCAGGYSCGVGLIDAWGQGTLVTVSS VL: SYELTQDPAVSVALGQTVRITCSGGSSDYYGWFQQKPGQAPVTVIYYNNKRPSDIPDRFSGSSSGNTASLTITGAQAEDEADYYCGNADSSVGVFGSGTKVTVL	0.4 ratio	0.7 ratio	0.6 ratio	0.8 ratio	1.6 ratio	1 ratio	0.8 ratio	0.7 ratio	0.7 ratio	0.6 ratio	0.5 ratio	1 ratio	–	–	–	–
12865.17150 Fab (Fab, V domains shown, monomeric Fab fragment) VH: EVQLLESGGGLVQPGGSLRLSCAASGFDFSDHGMQWVRQAPGKGLEYVGVIDTTGRYTYYAPAVKGRATISRDNSKNTLYLQMNSLRAEDTAVYYCAKTTCVGGYLCNTVGSIDAWGQGTLVTVSS VL: SYELTQDPAVSVALGQTVRITCSGGGSSSYYGWYQQKPGQAPVTVIYDDTNRPSGIPDRFSGSSSGNTASLTITGAQAEDEADYYCGGYEGSSHAGIFGSGTKVTVL	0.6 ratio	0.6 ratio	0.6 ratio	0.2 ratio	–	13.8 ratio	5.4 ratio	0.4 ratio	0.5 ratio	–	–	1 ratio	no binding (tested: 1 nM to 50 nM)	no binding (tested: 1 nM to 50 nM)	no binding (tested: 1 nM to 50 nM)	–
12819.17149 Fab (Fab, V domains shown, monomeric Fab fragment) VH: EVQLLESGGGLVQPGGSLRLSCAASGFTFTRYDMVWVRQAPGKGLEWVAGIGDSNKMTRYAPAVKGRATISRDNSKNTLYLQMNSLRAEDTAVYYCAKGSCIACWDEAGRIDAWGQGTLVTVSS VL: SYELTQDPAVSVALGQTVRITCSGGGSYDGSSYYGWYQQKPGQAPVTVIYNNNNRPSDIPDRFSGSSSGNTASLTITGAQAEDEADYYCGSYDRPETNSDYVGMFGSGTKVTVL	1.2 ratio	1.3 ratio	0.3 ratio	7.1 ratio	6.4 ratio	33.7 ratio	17.7 ratio	3.6 ratio	0.2 ratio	–	–	1.9 ratio	–	no binding (tested: 1 nM to 50 nM)	no binding (tested: 1 nM to 50 nM)	0.0268 nM
